Laboratory results taken from PMC11838735, “Structural basis of collagen glucosyltransferase function and its serendipitous role in kojibiose synthesis” (Research Square, 2025).

B1: mimiviral collagen glucosyltransferase R699, wild type (pET28 construct) (enzyme)
chain: EQSNNDDNLLVLGIGISVHKTDGVLRFEKYCQAHNLQYMIVGEGKKWNGGNLESEAGGGQKINELLIALESIKDNKLIVVCDTYDLIPLSGPEEILRKYRFLTPDNKVVFSSELYCWPDASLVERYPKVDTKYKYLNSGAFMGYRDDIYEMIKNGVKDRDDDQLFFSIKFIETDKIVLDYKCELFQAMYRCNSDLVVHKNRIFNGYTNSYPVFAHGNGPAKKLLNHMEGYFMTEPIDGSSNTINTFKLDNEPKVFFALYVDSNDLSALKQFLGKVASIQYGNKVIYLYDRSDNEQNRKLIQISYPNYHTGVTKYVFDDFKKSDAQFYFLLEQNCIITKKDILHELIMQVKDNHRVISPMIGYEQNSTRTNFWGDIEDGYYKRSENYLDLAKHKVRGLWNVPYVYGVILMHESVVRNWDLSMVKYNDKDMDLCFSLRKHTIFMYMINNNNYGYMV
notes: R699 protein of Acanthamoeba polyphaga mimivirus, collagen galactosylhydroxylysyl glucosyltransferase; gene synthesized by Genscript; The vector has a PreScission site in place of the thrombin site, and no cleavage is described for this construct; also called R699WT; mimiviral R699

Assays:
[1] = target: human PLOD2b GLT-AC truncation (PLOD2b-GA) (human); assay: SEC-MALS; the paper calls it SEC-DLS (size exclusion chromatography with dynamic light scattering); Superdex 200 10/300, miniDAWN TREOS and Optilab T-rEX detectors, 20 mM Tris pH 8, 200 mM NaCl, 3 mg ml^-1, 150 μl injected, 0.5 ml min^-1; molar mass across the peak; each protein analyzed once
[2] = target: the molecule itself; assay: as above

Row | Molecule | stoichiometry N [1] | stoichiometry N [2]
1 | human PLOD2b GLT-AC truncation (PLOD2b-GA) (domain or fragment) | 2 | –
2 | B1 | – | 2
